Results as given in patent US20120288494A1.

Key:
[1] = molecular target: IL-12 (UniProt P29460); assay: receptor binding assay (RBA)
[2] = molecular target: human IL-12 p70 (human) (UniProt P29460); assay: koff; method not given
Chain of human IL-12 p70 (human) (P29460 23-328, chain 1 of 2): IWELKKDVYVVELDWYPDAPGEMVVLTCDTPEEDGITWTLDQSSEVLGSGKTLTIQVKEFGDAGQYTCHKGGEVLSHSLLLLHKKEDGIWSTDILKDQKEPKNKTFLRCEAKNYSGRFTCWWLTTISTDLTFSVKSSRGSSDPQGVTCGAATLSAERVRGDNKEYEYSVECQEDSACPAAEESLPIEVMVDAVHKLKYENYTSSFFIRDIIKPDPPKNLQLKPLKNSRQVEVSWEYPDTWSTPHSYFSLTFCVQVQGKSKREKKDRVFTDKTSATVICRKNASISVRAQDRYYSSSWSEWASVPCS
Chain of human IL-12 p70 (human) (chain, as listed by the source, chain 2 of 2): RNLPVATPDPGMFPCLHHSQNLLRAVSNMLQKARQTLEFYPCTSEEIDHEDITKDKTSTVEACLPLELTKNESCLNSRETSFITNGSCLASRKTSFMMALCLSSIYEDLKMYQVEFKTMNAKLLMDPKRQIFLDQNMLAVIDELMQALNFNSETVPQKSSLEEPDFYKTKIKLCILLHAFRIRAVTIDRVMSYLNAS

Chain of IL-12 (P29460 23-328, chain 1 of 2): as the sequence (P29460 23-328, chain 1 of 2) above
Chain of IL-12 (P29459 23-219, chain 2 of 2, further chain): as the sequence (chain, as listed by the source, chain 2 of 2) above

IC50 [1]	fold increase in koff (against Y61) [2]	Substance
0.02 nM		Y61 L50Y
0.06 nM		Y61 L94Y
	2.5 fold	Y61 with Asn-L31 mutated to aspartate (antibody)
	8 fold	Y61 with His-H95 mutated to glutamate (antibody)
